Positions count from the first letter of the chain named. In names and notes the source's numbering stands.
B1: MOR11873 (antibody, V domains shown)
VH: QVQLVESGGGVVQPGRSLRLSCAASGFTFTSYGMSWVRQAPGKGLEWVAGISYSGSDTEYADSVKGRFTISRDNSKNTLYLQMNSLRAEDTAVYYCARSPDYIIDYGFDYWGRGTLVTVSS
VL: AIQMTQSPSSLSASVGDRVTITCRASQGISSDLAWYQQKPGKAPKLLIYDASSLQSGVPSRFSGSGSGTDFTLTISSLQPEDFATYYCQQYWIYPFTFGQGTKVEIKR
notes: Named by its variable regions only; H/DxMS used a representative antibody of the group; also called group mAb1, mAb2, mAb3, mAb13 (MOR11873)
B2: MOR11878 (antibody, V domains shown)
VH: B1 VH with S54D, G55A
VL: B1 VL with I93W
notes: Named by its variable regions only; H/DxMS used a representative antibody of the group; also called group mAb4, mAb5, mAb6, mAb14 (MOR11878)
B3: MOR11880 (antibody, V domains shown)
VH: QVQLVQSGAEVKKPGASVKVSCKASGYTFTGYYMHWVRQAPGQGLEWMGMIGPQHGEAIYAQKFQGRVTMTRDTSISTAYMELSRLRSDDTAVYYCARESTDSDESPFDYWGQGTLVTVSS
VL: SYELTQPLSVSVALGQTARITCSGDNIRSYYVSWYQQKPGQAPVLVIYDDSDRPSGIPERFSGSNSGNTATLTISRAQAGDEADYYCQSYGSHSNFVVFGGGTKLTVLG
notes: Named by its variable regions only; H/DxMS used a representative antibody of the group; also called group mAb10, mAb11, mAb12, mAb16 (MOR11880)
B4: mAb1 (MOR11873 with IgG1 LALA Fc variant) (antibody, V domains shown)
VH: B1 VH
VL: B1 VL
notes: Human IgG1 L234A L235A (LALA), expressed in HKB11 cells
B5: mAb4 (MOR11878 with IgG1 LALA Fc variant) (antibody, V domains shown)
VH: B1 VH with S54D, G55A
VL: B1 VL with I93W
notes: as for B4
B6: mAb7 (MOR11879 with IgG1 LALA Fc variant) (antibody, V domains shown)
VH: B3 VH with D89E
VL: B3 VL with S1D, Y2I, L8P, A13S, L14P, R19S, R76G, A77T, G80E
notes: as for B4
B7: mAb10 (MOR11880 with IgG1 LALA Fc variant) (antibody, V domains shown)
VH: B3 VH
VL: B3 VL
notes: as for B4

Each binder was assayed against T1, mouse IL12Rbeta1 (mouse, UniProt Q60837 20-565, limits assumed) (assay: not described).
T1 construct: also called murine IL12Rbeta1; rodent IL12Rbeta1 proteins
T1 sequence (looked up): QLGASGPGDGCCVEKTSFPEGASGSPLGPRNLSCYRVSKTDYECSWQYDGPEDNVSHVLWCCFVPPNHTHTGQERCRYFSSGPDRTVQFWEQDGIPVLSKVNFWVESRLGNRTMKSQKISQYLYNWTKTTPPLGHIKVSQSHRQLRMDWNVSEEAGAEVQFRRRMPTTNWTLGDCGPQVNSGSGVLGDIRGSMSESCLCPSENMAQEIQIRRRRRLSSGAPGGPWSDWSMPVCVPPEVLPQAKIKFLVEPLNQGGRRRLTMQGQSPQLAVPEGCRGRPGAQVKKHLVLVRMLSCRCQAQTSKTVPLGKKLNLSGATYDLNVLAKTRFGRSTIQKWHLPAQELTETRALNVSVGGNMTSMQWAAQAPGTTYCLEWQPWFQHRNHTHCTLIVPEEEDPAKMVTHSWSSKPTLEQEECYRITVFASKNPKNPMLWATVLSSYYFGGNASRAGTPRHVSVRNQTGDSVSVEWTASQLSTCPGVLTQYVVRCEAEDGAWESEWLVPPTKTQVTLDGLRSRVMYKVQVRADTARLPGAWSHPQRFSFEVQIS

Q: Does B1 bind?
A: no binding

Q: Does B2 bind?
A: no binding

Q: Does B3 bind?
A: no binding

These binders were tested against T2, human IL12Rβ1 naturally expressed on cells (Kit225 cells, human T-cells, human blood cells) (human, UniProt P42701 24-662) (assay: cell-based or functional assay).

Q: For B4, which “IL12/IL18 dependent IFNγ production In human blood cells (IC50, pM)” value is on record?
A: 28 pM

Q: B5 was tested. Which “IL12/IL18 dependent IFNγ production In human blood cells (IC50, pM)” value did it give?
A: 77 pM

Q: For B6, which “IL12/IL18 dependent IFNγ production In human blood cells (IC50, pM)” value is on record?
A: 24 pM

Q: B7 was tested. Which “IL12/IL18 dependent IFNγ production In human blood cells (IC50, pM)” value did it give?
A: 42 pM

Each binder was assayed against T3, cynomolgous IL12Rβ1 naturally expressed on cells (HSC-F cells, cyno T-cells, cyno blood cells) (cynomolgus monkey, UniProt P42701 24-662 (human entry)) (assay: cell-based or functional assay).

Q: B4 was tested. Which “IL12/IL18 dependent IFNγ production In cyno blood cells (IC50, pM)” value did it give?
A: 239 pM

Q: For B5, which “IL12/IL18 dependent IFNγ production In cyno blood cells (IC50, pM)” value is on record?
A: 216 pM

Q: B6 was tested. Which “IL12/IL18 dependent IFNγ production In cyno blood cells (IC50, pM)” value did it give?
A: 284 pM

Q: B7 was tested. Which “IL12/IL18 dependent IFNγ production In cyno blood cells (IC50, pM)” value did it give?
A: 1180 pM

What follows are binders tested against T4, cynomolgous monkey IL12Rβ1 (recombinant, construct not stated) (cynomolgus monkey, UniProt P42701 24-545 (human entry), limits assumed) (assay: SPR (Biacore), cyno IL12Rβ1).
T4 construct: The SPR method describes capture of an IL12Rβ1-Fc fusion, but the cyno construct is not described; the whole entry is named; also called cyno IL12Rβ1; cynomolgus IL12Rbeta1

Q: B4 was tested. Which Kd did it give?
A: 100 pM

Q: With B5 as the binder, how does the Kd read?
A: 100 pM

Q: For B6, which Kd is on record?
A: 600 pM

Q: For B7, which Kd is on record?
A: 600 pM

The binders below were run against T3, cynomolgous IL12Rβ1 naturally expressed … (assay: flow cytometry, cell binding on HSC-F (cyno natural expression)).
Protocol: (§1) Cell binding of selected antibodies is tested using various IL-12Rβ1 expressing cell lines, e.g. Kit 225 or HSC—F, or human and cyno T cell blasts, employing flow cytometry. After incubation with serial antibody dilutions, staining of the cells is quantified by flow cytometric analysis.

Q: Which EC50 does the source give for B4 here?
A: 23 pM

Q: With B5 as the binder, how does the EC50 read?
A: 13 pM

Q: Which EC50 does the source give for B6 here?
A: 23 pM

What follows are binders tested against T2, human IL12Rβ1 naturally expressed on … (assay: flow cytometry, cell binding on Kit225 (human natural expression)).
Protocol: as §1

Q: How did the EC50 turn out when B4 was run?
A: 6 pM

Q: How did the EC50 turn out when B5 was run?
A: 5 pM

Q: How did the EC50 turn out when B6 was run?
A: 10 pM

Q: How did the EC50 turn out when B7 was run?
A: 11 pM

The binders below were run against T5, human IL12Rβ1-Fc-Fusion (human, UniProt P42701 24-545) (assay: SPR (Biacore), IL12Rβ1-Fc fusion captured on anti-human-Fc CM5 chip).
T5 construct: Captured on an anti-human-Fc chip for SPR; not shown: Fc part of the fusion
From the text: For determination of KD values, surface plasmon resonance technology was applied using the Biacore™ technology. Anti-human-Fc-capture CM5 chip (Biacore, Sweden) was used for capturing IL12Rβ1-Fc-Fusion followed by ligand (Fab) injection at different concentrations.

Q: B4 was tested. Which Kd did it give?
A: 40 pM

Q: Which Kd does the source give for B5 here?
A: 20 pM

Q: Which Kd does the source give for B6 here?
A: 40 pM

Q: For B7, which Kd is on record?
A: 40 pM

Each binder was assayed against T3, cynomolgous IL12Rβ1 naturally expressed … (assay: flow cytometry, cell binding on cyno T-cells (cyno natural expression)).
Protocol: as §1

Q: B4 was tested. Which EC50 did it give?
A: 55 pM

Q: How did the EC50 turn out when B5 was run?
A: 41 pM

Q: Which EC50 does the source give for B6 here?
A: 36 pM

Q: B7 was tested. Which EC50 did it give?
A: 28 pM

These binders were tested against T2, human IL12Rβ1 naturally expressed on … (assay: flow cytometry, cell binding on human T-cells (human natural expression)).
Protocol: as §1

Q: Which EC50 does the source give for B4 here?
A: 33 pM

Q: B5 was tested. Which EC50 did it give?
A: 38 pM

Q: How did the EC50 turn out when B6 was run?
A: 15 pM

Q: For B7, which EC50 is on record?
A: 16 pM

What follows are binders tested against T6, human IL12Rbeta1 polypeptide (soluble receptor/antigen, construct not stated) (human, UniProt P42701 24-545) (assay: in vitro competitive binding assay (Bioveris/MSD); inhibition of receptor binding to coated IL12).
T6 construct: the whole entry is named; also called IL12Rβ1; the receptor
Protocol: (§2) During the assay procedure, a fixed amount (predetermined to result in near maximum signal) of the receptor was incubated with increasing concentrations (1:100 to 100:1 molar ratio) of purified Fab/IgG in solution. Subsequently, the samples were transferred to a ligand coated and blocked MSD multi-titer plate. The free receptor binds to the ligand and was detected via an appropriate ruthenium complex-labeled antibody and quantified. The concentration of bound receptor as an inverse function of Fab/IgG concentration used for incubation was fitted using the respective model. The inflection point of the fitted curve represents the IC₅₀ value.

Q: With B5 as the binder, how does the IC50 read?
A: 8 pM

Q: B6 was tested. Which IC50 did it give?
A: 8 pM

Q: Which IC50 does the source give for B7 here?
A: 8 pM

The binders below were run against T6, human IL12Rbeta1 polypeptide (soluble …) (assay: in vitro competitive binding assay (Bioveris/MSD); inhibition of receptor binding to coated IL23).
Protocol: as §2

Q: For B5, which IC50 is on record?
A: 13 pM

Q: For B6, which IC50 is on record?
A: 20 pM

Q: B7 was tested. Which IC50 did it give?
A: 20 pM

These binders were tested against T6, human IL12Rbeta1 polypeptide (soluble …) (assay: in vitro competitive binding assay (Bioveris/MSD); inhibition of receptor binding to coated IL12; IL12 competitive binding (first number of 8/18)).
Protocol: as §2

Q: Which IC50 does the source give for B4 here?
A: 8 pM

These binders were tested against T6, human IL12Rbeta1 polypeptide (soluble …) (assay: in vitro competitive binding assay (Bioveris/MSD); inhibition of receptor binding to coated IL23; IL23 competitive binding (second number of 8/18)).
Protocol: as §2

Q: How did the IC50 turn out when B4 was run?
A: 18 pM
